Source: EP4737484A1 (Phil Rivers Technology Co., Ltd, dated 2026)

Legend:
[1] = molecular target: T1, huIL-1β-His (human, UniProt P01584 117-269); assay: ELISA, plate coated with huIL-1β-His, anti-human IgG Fc-HRP; positive control
[2] = molecular target: T1, huIL-1β-His; assay: ELISA, plate coated with huIL-1β-His, anti-human IgG Fc-HRP
[3] = molecular target: T2, full-length human PD-L1 on huPD-L1-CHO-K cells (human, UniProt Q9NZQ7 19-290); assay: flow cytometry on huPD-L1-CHO-K cells, PE anti-human IgG Fc
T2 construct: also called huPD-L1-overexpressing-CHO-K cells; CD3L-PD-L1-CHO

[4] = molecular target: T3, huPD-L1-His (human, UniProt Q9NZQ7 19-238); assay: ELISA, plate coated with huPD-L1-His, anti-human IgG Fc-HRP
T3 construct: also called human recombinant protein huPD-L1-His; antigen PD-L1

[5] = molecular target: T1, huIL-1β-His; assay: bridging ELISA: coated huPD-L1-Fc, antibody, then huIL-1β-His, anti-His-HRP
[6] = molecular target: huPD-L1-Fc (human); assay: as above
[7] = molecular target: T3, huPD-L1-His; assay: bridging ELISA: coated huIL-1β-Fc, antibody, then huPD-L1-His, anti-His-HRP
[8] = molecular target: T4, huIL-1β-Fc (human); assay: as above
T4 construct: also called huIL-1β-Fe

binding result [2]	binding result [3]	Binder	also measured
		Canakinumab (antibody, human IgG1, kappa, V domains shown, also called positive control Canakinumab) VH: QVQLVESGGGVVQPGRSLRLSCAASGFTFSVYGMNWVRQAPGKGLEWVAIIWYDGDNQYYADSVKGRFTISRDNSKNTLYLQMNGLRAEDTAVYYCARDLRTGPFDYWGQGTLVTVSS VL: EIVLTQSPDFQSVTPKEKVTITCRASQSIGSSLHWYQQKPDQSPKLLIKYASQSFSGVPSRFSGSGSGTDFTLTINSLEAEDAAAYYCHQSSSLPFTFGPGTKVDIKR	binding result [1]: binds
binds		BsAb17 (bispecific antibody, Atezolizumab heavy (Knob) and light chain; Canakinumab VH-CL-Fc (hole); also called Construct BsAb17) heavy: not shown light: not shown chain 1: not shown chain 2: EIVLTQSPDFQSVTPKEKVTITCRASQSIGSSLHWYQQKPDQSPKLLIKYASQSFSGVPSRFSGSGSGTDFTLTINSLEAEDAAAYYCHQSSSLPFTFGPGTKVDIKSSASTKGPSVFPLAPSSKSTSGGTAALGCLVKDYFPEPVTVSWNSGALTSGVHTFPAVLQSSGLYSLSSVVTVPSSSLGTQTYICNVNHKPSNTKVDKKVEPKSC	
binds		BsAb22 (bispecific antibody, Atezolizumab heavy chain (Fc with F405L) and light chain; Canakinumab VH-CL-Fc (K409R); also called Construct BsAb22) heavy: not shown light: not shown chain 1: not shown chain 2: EIVLTQSPDFQSVTPKEKVTITCRASQSIGSSLHWYQQKPDQSPKLLIKYASQSFSGVPSRFSGSGSGTDFTLTINSLEAEDAAAYYCHQSSSLPFTFGPGTKVDIKSSASTKGPSVFPLAPSSKSTSGGTAALGCLVKDYFPEPVTVSWNSGALTSGVHTFPAVLQSSGLYSLSSVVTVPSSSLGTQTYICNVNHKPSNTKVDKRVEPKSC	
binds	binds	BsAb25 (bispecific antibody, Canakinumab IgG1 heavy chain-(G4S)4-Atezolizumab scFv (VH G44C-(G4S)4-VL Q100C); also called Construct BsAb25) heavy: not shown light: EIVLTQSPDFQSVTPKEKVTITCRASQSIGSSLHWYQQKPDQSPKLLIKYASQSFSGVPSRFSGSGSGTDFTLTINSLEAEDAAAYYCHQSSSLPFTFGPGTKVDIKRTVAAPSVFIFPPSDEQLKSGTASVVCLLNNFYPREAKVQWKVDNALQSGNSQESVTEQDSKDSTYSLSSTLTLSKADYEKHKVYACEVTHQGLSSPVTKSFNRGEC	binding result [4]: binds
	binds	BsAb29 (bispecific antibody, also called Construct BsAb29) heavy: not shown light: EIVLTQSPDFQSVTPKEKVTITCRASQSIGSSLHWYQQKPDQSPKLLIKYASQSFSGVPSRFSGSGSGTDFTLTINSLEAEDAAAYYCHQSSSLPFTFGPGTKVDIKRTVAAPSVFIFPPSDEQLKSGTASVVCLLNNFYPREAKVQWKVDNALQSGNSQESVTEQDSKDSTYSLSSTLTLSKADYEKHKVYACEVTHQGLSSPVTKSFNRGEC	binding result [5]: binds; binding result [6]: binds; binding result [7]: binds; binding result [8]: binds
binds		BsAb18 (bispecific antibody, Atezolizumab heavy (Knob) and light chain; Canakinumab VL-IgG1 constant region (hole); also called Construct BsAb18) heavy: not shown light: not shown chain 1: not shown chain 2: QVQLVESGGGVVQPGRSLRLSCAASGFTFSVYGMNWVRQAPGKGLEWVAIIWYDGDNQYYADSVKGRFTISRDNSKNTLYLQMNGLRAEDTAVYYCARDLRTGPFDYWGQGTLVTVSSASVAAPSVFIFPPSDEQLKSGTASVVCLLNNFYPREAKVQWKVDNALQSGNSQESVTEQDSKDSTYSLSSTLTLSKADYEKHKVYACEVTHQGLSSPVTKSFNRGEC	
